The source of these data is US20070098721A1.

Common to all, as to assay: dot blot, antigen dilution series on nitrocellulose
Test [1] addresses HFIP-treated Aβ(1-42) monomer of example 1a (human amyloid β(1-42) protein) (human).
Test [2] deals with Aβ(1-42) oligomers B (human amyloid β(1-42) oligomers having molecular weights of 38 kDa and 48 kDa; preparation of example 6b) (human) (UniProt P05067).
Test [3] deals with Aβ(1-42) fibril preparation of example 27 (human) (UniProt P05067).
Aβ(1-42) fibril preparation of example 27 (human), sequence (P05067 672-713 limits assumed): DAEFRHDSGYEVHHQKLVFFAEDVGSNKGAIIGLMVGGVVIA

Aβ(1-42) oligomers B (human amyloid β(1-42) oligomers having molecular weights of 38 kDa and 48 kDa; preparation of example 6b) (human), sequence (P05067 672-713 limits assumed): as above
HFIP-treated Aβ(1-42) monomer of example 1a (human amyloid β(1-42) protein) (human), sequence (peptide, as listed by the source): as the sequence (P05067 672-713 limits assumed) above

For the substance monoclonal antibody 6E10 (Signet), the results for the minimum amount of antigen visible (detection limit) in test [1], in test [2] and in test [3] were 0.1 pmol, 0.1 pmol and 1 pmol, respectively.
